Values joined by “and” are separate entries in the source; they are usually repeats but may differ in a detail not shown here. Equal values may be shown once.
Columns and labels:
[1] = molecular target: avi-β1AR-E (turkey β1-adrenergic receptor, β1AR-E construct with N-terminal biotinylated avi-tag) (turkey), P07700; assay: BLI; biotinylated avi-β1AR in LMNG on streptavidin biosensors, mini-G in solution; 500 μM isoprenaline; 20 mM TrisHCl pH 8.0, 150 mM NaCl, 15 mM MgCl2, 0.02% LMNG, 0.1% BSA; 25 °C; single point measurements, monophasic 1:1 local fit, n = 3
[2] = molecular target: avi-β1AR-E (turkey β1-adrenergic receptor, minimally thermostabilised construct with E130 restored, N-terminal biotinylated avi-tag) (turkey), P07700; assay: BLI; biotinylated avi-tagged receptor in LMNG immobilised on streptavidin biosensors; 500 μM isoprenaline; mini-G in solution at a single concentration (0.125-4 μM); 20 mM TrisHCl pH 8.0, 150 mM NaCl, 15 mM MgCl2, 0.02% LMNG, 0.1% BSA; 25 °C; 1:1 monophasic local partial fit; one of n = 3 tips
[3] = molecular target: avi-β1AR-W (turkey β1-adrenergic receptor β1AR-MetΔ5, thermostabilised with E130W, N-terminal biotinylated avi-tag) (turkey), P07700; assay: as above
Chain of avi-β1AR-W (turkey β1-adrenergic receptor β1AR-MetΔ5, thermostabilised with E130W, N-terminal biotinylated avi-tag) (turkey), P07700 (P07700 other isoform, or with tags, fused parts or gaps E130W): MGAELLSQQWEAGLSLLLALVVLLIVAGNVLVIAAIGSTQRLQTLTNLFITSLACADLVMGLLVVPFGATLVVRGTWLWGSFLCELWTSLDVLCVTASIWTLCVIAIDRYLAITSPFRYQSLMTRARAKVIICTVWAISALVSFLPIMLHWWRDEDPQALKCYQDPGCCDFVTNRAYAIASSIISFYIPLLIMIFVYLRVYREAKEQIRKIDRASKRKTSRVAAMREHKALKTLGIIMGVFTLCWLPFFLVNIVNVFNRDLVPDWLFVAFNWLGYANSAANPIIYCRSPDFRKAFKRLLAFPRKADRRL

Chain of avi-β1AR-E (turkey β1-adrenergic receptor, β1AR-E construct with N-terminal biotinylated avi-tag) (turkey), P07700 (P07700 other isoform, or with tags, fused parts or gaps): as the sequence (P07700 other isoform, or with tags, fused parts or gaps E130W) above, with W100E counted along it
Chain of avi-β1AR-E (turkey β1-adrenergic receptor, minimally thermostabilised construct with E130 restored, N-terminal biotinylated avi-tag) (turkey), P07700 (P07700 other isoform, or with tags, fused parts or gaps): as the sequence (P07700 other isoform, or with tags, fused parts or gaps E130W) above, with W100E counted along it

| Kd [1] [nM] | fold reduction of kon against mini-Gs [1] [fold] | Kd [2] | koff [2] | kon [2] | Kd [3] | koff [3] | kon [3] | Binder |
| --- | --- | --- | --- | --- | --- | --- | --- | --- |
| 47 |  |  |  |  |  |  |  | mini-Gs 393 with C96A (domain or fragment, modifications not checked) GIEKQLQKDKQVYRATHRLLLLGADNSGKSTIVKQMRIYHGGSGGSGGTSGIFETKFQVDKVNFHMFDVGGQRDERRKWIQAFNDVTAIIFVVDSSDYNRLQEALNDFKSIWNNRWLRTISVILFLNKQDLLAEKVLAGKSKIEDYFPEFARYTTPEDATPEPGEDPRVTRAKYFIRDEFLRISTASGDGRHYCYPHFTCAVDTENARRIFNDCRDIIQRMHLRQYELL |
| 1340 | 50 | 1430 nM and 1120 nM and 1460 nM | 0.0042 s⁻¹ and 0.00358 s⁻¹ and 0.00401 s⁻¹ | 2950 M⁻¹ s⁻¹ and 3200 M⁻¹ s⁻¹ and 2740 M⁻¹ s⁻¹ | 8.71 µM and 8.11 µM and 5.42 µM | 0.0102 s⁻¹ and 0.00894 s⁻¹ and 0.00914 s⁻¹ | 1170 M⁻¹ s⁻¹ and 1100 M⁻¹ s⁻¹ and 1690 M⁻¹ s⁻¹ | mini-Go1 R12 (domain or fragment, modifications not checked) IEKNLKEDGISAAKDVKLLLLGADNSGKSTIVKQMKIIHTTGIVETHFTFKNLHFRLFDVGGQRSERKKWIHCFEDVTAIIFCVDLSDYNRMHESLMLFDSICNNKFFIDTSIILFLNKKDLFGEKIKKSPLTICFPEYTGPNTYEDAAAYIQAQFESKNRSPNKEIYCHMTCATDTNNAQVIFDAVTDIIIANNLRGCGLY |

Reference: article PMC10864275, “Binding kinetics drive G protein subtype selectivity at the β1-adrenergic receptor” (Nature Communications, 2024)
